Reference: US20240287165A1 (GENERAL HOSPITAL, published 2024)

Legend:
[1] = target: T1, full-length wild type human ApoE3 recombinant protein (His-tagged) (human, UniProt P02649 19-317); test: BLI (BLItz), mAb 1H4 on protein A biosensor, run with 285.7 nM ApoE3, global fit
T1 construct: Recombinant protein from Innovagen; also called ApoE3 WT full-length protein; APOE3 WT; not shown: histidine tag
Protocol: (§1) The binding affinity between ApoE3 and the monoclonal antibody 1H4 (mAb 1H4) was determined using the advanced kinetic module of the BLItz system (Blitz Pro, FB-609928, ver. 1.3.1.3). Briefly, a protein A biosensor was loaded with mAb 1H4 and both association and dissociation constants were determined at increasing concentrations of the full length ApoE3 protein (Innovagen) from 0 to 571.4 nM. The following running settings were used: 30 s initial baseline in the experimental media, 120 s loading of the ligand (mAb 1H4) on the biosensors, 30 s new baseline before association (120 s) and dissociation (120 s) steps. A total of 6 runs of 420 s at 2200 rpm and room temperature were conducted to determine the binding parameters of ApoE3. Global fitting and step corrections of the dissociation experiments were performed using the BLItz software (ver. 1.1.0.7). […] KD, Ka and Kd were measured (table 10) and calculated using the BLItz system. Top panel is representative of the association steps, the bottom panel is representative of the dissociation steps of the binding kinetic. The X and Y axes depicts time in second and binding in nM, respectively.

[2] = target: T1, full-length wild type human ApoE3 …; test: BLI (BLItz), mAb 1H4 on protein A biosensor, run with 35.71 nM ApoE3, global fit
Protocol: as §1

[3] = target: T1, full-length wild type human ApoE3 …; test: BLI (BLItz), mAb 1H4 on protein A biosensor, run with 35.71 nM ApoE3, global fit; columns shifted: value stands under 'Ka Error' but is the kd (0.04142/2900000 = 14.28 nM)
Protocol: as §1

[4] = target: T2, full-length ApoE3ch (ApoE3 Christchurch R136S) mutant recombinant protein (His-tagged) (human, UniProt P02649 19-317); test: ELISA of 1H4-2 subclone serum on ApoE3ch full length protein, O.D. 450 nm against dilution factor
T2 construct: also called ApoE3ch full length protein; APOE3ch Mutant; not shown: histidine tag

[5] = target: T1, full-length wild type human ApoE3 …; test: BLI (BLItz), mAb 1H4 on protein A biosensor, run with 142.9 nM ApoE3, global fit; columns shifted: value stands under 'Ka Error' but is the kd (0.04142/2900000 = 14.28 nM)
Protocol: as §1

[6] = target: T1, full-length wild type human ApoE3 …; test: BLI (BLItz), mAb 1H4 on protein A biosensor, run with 571.4 nM ApoE3, global fit
Protocol: as §1

[7] = target: T3, ApoEch peptide KLH-CTEELRVSLASHLRK-CONH2 (human, not fully specified; C-terminal amide (CONH2); printed with KLH on the added N-terminal cysteine); test: ELISA of 1H4-2 subclone serum on ApoE3ch peptide, O.D. 450 nm against dilution factor
T3 construct: also called Mut peptide; mutant ApoE peptide
T3 peptide: CTEELRVSLASHLRK

[8] = target: T1, full-length wild type human ApoE3 …; test: BLI (BLItz), mAb 1H4 on protein A biosensor, run with 285.7 nM ApoE3, global fit; columns shifted: value stands under 'Ka Error' but is the kd (0.04142/2900000 = 14.28 nM)
Protocol: as §1

[9] = target: T3, ApoEch peptide KLH-CTEELRVSLASHLRK-CONH2; test: ELISA, parental hybridoma clone
[10] = target: T2, full-length ApoE3ch (ApoE3 Christchurch …); test: ELISA, parental hybridoma clone
[11] = target: T1, full-length wild type human ApoE3 …; test: ELISA, parental hybridoma clone
[12] = target: T4, wild type ApoE peptide KLH-CTEELRVRLASHLRK-CONH2 (human, not fully specified; C-terminal amide (CONH2); printed with KLH on the added N-terminal cysteine); test: ELISA, parental hybridoma clone
T4 construct: also called WT peptide; ApoE3 WT peptide
T4 peptide: CTEELRVRLASHLRK

[13] = target: T1, full-length wild type human ApoE3 …; test: BLI (BLItz), mAb 1H4 on protein A biosensor, run with 142.9 nM ApoE3, global fit
Protocol: as §1

[14] = target: T1, full-length wild type human ApoE3 …; test: BLI (BLItz), mAb 1H4 on protein A biosensor, run with 71.43 nM ApoE3, global fit; columns shifted: value stands under 'Ka Error' but is the kd (0.04142/2900000 = 14.28 nM)
Protocol: as §1

[15] = target: T1, full-length wild type human ApoE3 …; test: BLI (BLItz), mAb 1H4 on protein A biosensor, run with 71.43 nM ApoE3, global fit
Protocol: as §1

mouse recombinant ApoE = target: T5, mouse recombinant ApoE (mouse, UniProt P08226 19-311); test: ELISA, His-tagged target on anti-His plate, serial antibody dilutions, anti-mouse HRP, O.D. 450 nm
T5 construct: also called mouse recombinant ApoE3; msApoE
T5 sequence (looked up): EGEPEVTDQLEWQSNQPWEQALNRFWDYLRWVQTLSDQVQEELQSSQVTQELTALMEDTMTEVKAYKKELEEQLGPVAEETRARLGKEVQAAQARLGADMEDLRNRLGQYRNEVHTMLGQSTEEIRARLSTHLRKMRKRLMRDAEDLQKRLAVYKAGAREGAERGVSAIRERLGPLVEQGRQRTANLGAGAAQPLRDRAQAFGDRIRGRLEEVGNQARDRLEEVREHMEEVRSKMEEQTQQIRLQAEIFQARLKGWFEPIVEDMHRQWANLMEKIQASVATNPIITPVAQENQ
Protocol: To test selectivity of the antibodies for huApoE3WT, huApoE3ch or msApoE, anti-his ELISA coated plates were incubated with 0.0025 μg/μL of the target protein for 2 h at R.T. under gentle shaking. Wells were washed 5 times with 1X wash buffer (R&D) and subsequently incubated with serial dilutions of Innovagen antibody of interest over night at 4° C. on a shaker (100 μL/well). The following day, wells were washed 5 times with sample buffer and incubated for 45 minutes using Rabbit-anti-mouse HRP-conjugated buffer (1:10,000; 100 μL/well; Abcam). After 5 more washes, plates were incubated with chromogen A+B 1:1 to initiate the colorimetric reaction (100 μL/well). The reaction was stopped with 2 N […] (R&D stop solution., 50 μL/well) and absorbance detected at 450 nm spectroscopically.

[16] = target: T1, full-length wild type human ApoE3 …; test: BLI (BLItz), mAb 1H4 on protein A biosensor, run with 571.4 nM ApoE3, global fit; columns shifted: value stands under 'Ka Error' but is the kd (0.04142/2900000 = 14.28 nM)
Protocol: as §1

T1 sequence (P02649 19-317): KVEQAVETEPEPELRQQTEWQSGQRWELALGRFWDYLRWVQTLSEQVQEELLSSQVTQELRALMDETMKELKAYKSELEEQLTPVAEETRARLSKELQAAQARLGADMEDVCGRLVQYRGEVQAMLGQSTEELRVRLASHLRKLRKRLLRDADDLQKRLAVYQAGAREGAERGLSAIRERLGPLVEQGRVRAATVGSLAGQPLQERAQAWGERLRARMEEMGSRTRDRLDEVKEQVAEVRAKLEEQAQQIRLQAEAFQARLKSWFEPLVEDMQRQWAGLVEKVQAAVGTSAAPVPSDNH
T2 sequence (P02649 19-317 R154S): as the sequence (P02649 19-317) above, with R136S counted along it

Kd [1]: 14.3 nM
kon [1]: 2.9e+06 M⁻¹ s⁻¹
Kd [2]: 14.3 nM
kon [2]: 2.9e+06 M⁻¹ s⁻¹
koff [3]: 0.0414 s⁻¹
binding result [4]: no binding (tested: 1:10 dilution)
koff [5]: 0.0414 s⁻¹
Kd [6]: 14.3 nM
kon [6]: 2.9e+06 M⁻¹ s⁻¹
binding result [7]: no binding (tested: 1:10 dilution)
koff [8]: 0.0414 s⁻¹
absorbance (ELISA) [9]: 0.07 absorbance
absorbance (ELISA) [10]: 0.056 absorbance
absorbance (ELISA) [11]: 2.11 absorbance
absorbance (ELISA) [12]: 2.58 absorbance
Kd [13]: 14.3 nM
kon [13]: 2.9e+06 M⁻¹ s⁻¹
koff [14]: 0.0414 s⁻¹
Kd [15]: 14.3 nM
kon [15]: 2.9e+06 M⁻¹ s⁻¹
binding result (mouse recombinant ApoE): no binding (tested: 1:500 dilution)
koff [16]: 0.0414 s⁻¹
B1: antibody 1H4-2 (antibody, V domains shown)
VH: EVKLVESGGGVVQPGGSLKLSCAASGFTFSSYTMSWVRQTPEKRLEWVAKIRNGGGITYYLDTLKGRFTISRDNAKNTLYLQMSSLKSEDTAIYFCARHYYGSEDYFDYWGQGTTLTVSS
VL: DNVLTQSPASLAVSLGQRATISCKASQSVDYDGDSYMNWYQQKPGQPPKVFIYAASNLESGIPARFSGSGSGTDFTLNIHPVEEEDAATYYCQQSNEDPWTFGGGTKLEIK
notes: also called mAb 1H4; monoclonal 1H4 antibody
